The results in this text go back to IntAct's records for PubMed 26524528.

For experiment [1], the target named is lmnb1_human LMNB1 (UniProt P20700).
Experiment [2] shares this target. The source holds these as a separate data set.
The target is the same in experiment [3]. The source holds these as a separate data set.

Consider “Microtubule-associated protein 1 light chain 3 beta (Homo sapiens) (from UniProt Q9GZQ8) G120A”, for which the “effect of a mutation on the interaction” value with lmnb1_human LMNB1 [1] is on record as “decreasing interaction strength”; with lmnb1_human LMNB1 [2], “disrupting interaction strength”.

Turning to “Microtubule-associated protein 1 light chain 3 beta (Homo sapiens) (from UniProt Q9GZQ8) R10A;R11A”, the “effect of a mutation on the interaction” value with lmnb1_human LMNB1 [3] is recorded as “disrupting interaction strength”.
